Assay results published in paper PMC13216289 (NPJ Vaccines, 2026).
Substitutions are numbered along the chain they refer to.

B1: Ab34, recombinant cattle IgG1/lambda antibody (antibody, V domains shown)
VH: QVQLRESGPSLVKPSQTLSLTCTVSGFSLTDVHVGWVRQTPGKALEWVGVICNRGAIGYNPALESRLSITEDNSKSQVSLSLSSVTTADTATYYCASSCRTEGDVGGDCDSDHFFCAWGQGLLVTVSS
VL: SYELTQPTSVSVALGQTAKITCSGDLLDRQYAQWYQQKPGQGPVRVIYKDSERPSGISDRFSGSSSGKTATLTVSGAQTEDEADYYCHSADSSHYPVFGSGSTLTVL
notes: copies: 2 + 2
B2: Fab34, recombinant cattle Fab of Ab34 (Fab, V domains shown)
VH: B1 VH
VL: B1 VL
B3: Ab17, recombinant cattle IgG1/lambda antibody (antibody, V domains shown)
VH: QVQLRESGPSSLKPSQTLSLTCAVSGFSLSTYAVGWVRQAPGKALEWVGDITSSGDTFYNPALKSRFSITKDNSKNQVSLSVGSVTPEDTATFYCTRLTCGDDCSTAWHNFDAWGQGLLVTVSS
VL: SYELTQPTSVSVALGQTAKITCSGDLLDVQYTQWYQQKPGQGPVRVIYKDSERPSGISDRFSGSSSGKTATLIISGAQTEDEADYYCQSTDSSQYGIFGRGTTLTVL
notes: copies: 2 + 2
B4: Fab17, recombinant cattle Fab of Ab17 (Fab, V domains shown)
VH: B3 VH
VL: B3 VL
B5: Ab49, recombinant cattle IgG1/lambda antibody (antibody, V domains shown)
VH: QVQLRESGPSLVKPSQTLSLTCTVSGFSLTNYAVGWVRQAPGKAIQSLSIISTTGDTYYNPALKSRLSITKDNSKSQVSLSVSSVAPEDTATYYCVKFCGNADSAGHGWGCDYGDNENWGQGLLVTVSS
VL: B1 VL with R29E, A32T, V74I, H88Q, A90F, D91Y, H94T, Y95D, S102T
notes: copies: 2 + 2
B6: Fab49, recombinant cattle Fab of Ab49 (Fab, V domains shown)
VH: B5 VH
VL: B1 VL with R29E, A32T, V74I, H88Q, A90F, D91Y, H94T, Y95D, S102T

Legend:
Assay in all cases: BLI
Conditions in all cases: both partners purified
[1] = molecular target: T1, FMDV O1/Manisa/TUR/69 virus-like particle, VP2 93C stabilised (Foot-and-mouth disease virus …, UniProt Q6PMW3, stabilised)
T1 construct: copies: 60 + 60 + 60 + 60

[2] = molecular target: T2, FMDV A22/IRQ/24/64 virus-like particle, VP2 93C stabilised (FMDV serotype A, A22/IRQ/24/64, stabilised)
T2 construct: copies: 60 + 60 + 60 + 60

[3] = molecular target: T1, FMDV O1/Manisa/TUR/69 virus-like …; remark: listed apart in the source
[4] = molecular target: T2, FMDV A22/IRQ/24/64 virus-like particle, …; remark: listed apart in the source

| Binder | Kd [1] | Kd [2] | Kd [3] | Kd [4] | koff [1] | kon [1] | koff [2] | kon [2] | koff [3] | kon [3] | koff [4] | kon [4] |
| --- | --- | --- | --- | --- | --- | --- | --- | --- | --- | --- | --- | --- |
| B1 | 0.00904 nM | 0.0093 nM | – | – | – | – | – | – | – | – | – | – |
| B2 | – | – | 12.3 nM | 9.9 nM | – | – | – | – | – | – | – | – |
| B3 | 0.021 nM | 0.246 nM | – | – | 7.96e-06 s⁻¹ | 303000 M⁻¹ s⁻¹ | 0.000164 s⁻¹ | 685000 M⁻¹ s⁻¹ | – | – | – | – |
| B4 | – | – | 5.93 nM | 19.6 nM | – | – | – | – | 0.0117 s⁻¹ | 1.19e+06 M⁻¹ s⁻¹ | 0.0298 s⁻¹ | 1.52e+06 M⁻¹ s⁻¹ |
| B5 | 0.156 nM | 0.114 nM | – | – | 4.9e-05 s⁻¹ | 257000 M⁻¹ s⁻¹ | 3.61e-05 s⁻¹ | 389000 M⁻¹ s⁻¹ | – | – | – | – |
| B6 | – | – | 6.37 nM | 4.44 nM | – | – | – | – | 0.0029 s⁻¹ | 553000 M⁻¹ s⁻¹ | 0.00349 s⁻¹ | 749000 M⁻¹ s⁻¹ |
